# Assay results published in PMC8359077, “DNA aptamer against EV-A71 VP1 protein: selection and application”.
# T1: EV-A71 VP1 (capsid protein) (Enterovirus A71) (UniProt Q66478)
# T1 sequence: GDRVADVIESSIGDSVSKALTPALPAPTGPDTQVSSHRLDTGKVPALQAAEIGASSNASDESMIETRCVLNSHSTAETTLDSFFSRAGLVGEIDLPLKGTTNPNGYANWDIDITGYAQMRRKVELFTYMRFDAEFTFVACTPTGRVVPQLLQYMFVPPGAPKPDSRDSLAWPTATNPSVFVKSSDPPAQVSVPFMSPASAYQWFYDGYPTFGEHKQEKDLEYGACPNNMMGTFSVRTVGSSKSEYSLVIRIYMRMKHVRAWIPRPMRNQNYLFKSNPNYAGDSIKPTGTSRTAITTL
# B1: V11 (ssDNA)
# DNA: ACTAAGCCACCGTGTCCACCCTCGCCGAGTTTTCGTAACTATATCTTGTGGTTCCTATTGCTGCGTCACTCTGGAT
# modifications: dU at positions 22,30,31,32,33,36,40,42,44,46,47,49,52,53,56,58,59,62,66,70,72,76 (printed 'U, uracil'; every T 3' of the 18-nt primer; whether the dU carries a C5 group is not stated)
# Columns and labels:
# [1] = target: T1, EV-A71 VP1 (capsid protein) (Enterovirus A71); experiment: ELISA; settings: 5 mM Mg2+; VP1 coated at 200 ng/mL; unit given as nm; given with U (uracil) mixed with t in a DNA aptamer; U may stand for T; 1x PBS, 5 mM MgCl2, 1% BSA, 1 ug/mL tRNA, 0.02% Tween-20, room temperature, 1 h; pH not stated
# Bovine serum albumin = Bovine serum albumin (Bos taurus (Bovine), UniProt P02769 25-607); experiment: ELONA; PBS, 5 mM MgCl2, 1% BSA, 1 ug/mL tRNA, 0.02% Tween-20, RT; VP1 coated on plate; settings: label: 5'-biotin
# Bovine serum albumin, sequence (P02769 25-607): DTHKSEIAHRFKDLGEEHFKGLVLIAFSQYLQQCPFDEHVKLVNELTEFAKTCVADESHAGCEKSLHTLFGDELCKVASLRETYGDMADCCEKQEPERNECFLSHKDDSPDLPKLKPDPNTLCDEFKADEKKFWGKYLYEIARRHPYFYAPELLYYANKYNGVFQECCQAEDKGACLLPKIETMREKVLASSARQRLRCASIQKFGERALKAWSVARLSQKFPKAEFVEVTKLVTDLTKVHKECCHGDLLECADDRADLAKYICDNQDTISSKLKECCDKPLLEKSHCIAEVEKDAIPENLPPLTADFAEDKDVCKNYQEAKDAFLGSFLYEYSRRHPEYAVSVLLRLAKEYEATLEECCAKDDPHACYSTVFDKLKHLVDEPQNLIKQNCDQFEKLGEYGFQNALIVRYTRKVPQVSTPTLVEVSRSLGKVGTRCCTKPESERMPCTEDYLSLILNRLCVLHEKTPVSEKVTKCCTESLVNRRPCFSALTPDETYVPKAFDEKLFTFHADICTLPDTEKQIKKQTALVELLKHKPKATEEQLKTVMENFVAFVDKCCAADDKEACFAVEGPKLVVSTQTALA
Molecule,Kd [1] [nM],binding result (Bovine serum albumin)
ACTAAGCCACCGTGTCCAUCAAUGGUGUGUGCAUUCGUGUGUUGUGUUGUUUGUUGUUUGCUGCGUCACUCUGGAU [V7],32.7,–
ACTAAGCCACCGTGTCCACCCUCGCCGAGUUUUCGUAACUAUAUCUUGUGGUUCCUAUUGCUGCGUCACUCUGGAU [V11],4.28,–
ACTAAGCCACCGTGTCCAUUCGAUUCGAUCUAAUUUGGUUCUUUCCUCACUUUUCAGUGCUGCGUCACUCUGGAU [V21],4.55,–
B1,–,no binding
